Laboratory results as given in the DeepSol protein solubility set.

Assay: soluble on expression in E. coli; label from the status in PepcDB or PDB records

Sequence | soluble on expression in E. coli
MKSAIPSLMVQGTTSDAGKSVLVAGLCRVLARKGINVAPFKPQNMALNSAVTKDGGEIGRAQAVQAQACNIEPTVHMNPVLIKPNSDTGAQIILQGKALSNMDAASFHDYKKVAMNTVLDSFSKLTKEFDSIMIEGAGSPAEINLREGDIANMGFAEAADVPVIIVADIDRGGVFAHLYGTLALLSESEQTRVKGFVINRFRGDIRLLQSGLDWLEEKTGKPVLGVLPYLHGLNLEAEDAITAQQELNSEVKLNVVVPVLTRISNHTDFDVLRLNPDINLSYVGKGEKI | not soluble
MSLKALIIMDMTNDFVFEKYEHEGKEYEGRLVAPLGKTIVEPIEALVKKVVNSGTVSLFRISKDHYDAFTNPELELKVAELGIDEVFMTGLVDEVCIYHNTLGFLERGFRTNVVRGCTAPFDPEKGRESLGELDACGTKMVDDIPSDIGVILLLEDEHDENSEEIKSGSWPPHSMKGTPGALTIKPIREALESREGHHHHHH | soluble
MGTIPASTYYPTHFMRGTQLNVANGNIKKVEDLSSDDFLRCAAESDDVIVNASVIKSIKSTAGSVTIIFETGIEKQLIPLKCQVEHPFFVLGKGWCSCNPRKSGENYGLDCEILQVDDVCIVLTRNEDKITDCAVDIVTAERDLELFSQRAALKEQLVDVYYERVSGRVSAPPERVLVTFSNEHRERRISE | not soluble
MNALARRAAGLLLSTICLPLTALAADPQPTHEFTLDNGLKVVVREDHRAPVVVSQIWYKVGSSYETPGQTGLSHALEHMMFKGSSKTGPGESSLILRDLGAEENAFTSDDYTAYYQVLARDRLSVALELEADRMATLKLPADEFGREIEVIKEERRLRTDDKPMGKAFERFKAMAYPASGYHTPTIGWMADLERMKVEELRHWYESWYTPNNATLVVVGDVQPDEVKALAERFFGPIPRRDVPPSKKPLELAEPGERKITLHVKTQLPSLIYGFNVPSVATAEDPRSANALRLIAALLDGGYSARIPTRLERGEELVSGASSRYDAFARGDSLFMISATPNMQKKKTLADVEAGIWRLLDDLKTKAPSAEELERVRAQVIAGVVYERDSITSQATMIGELETVGLSWKLMDKELEDLQSVTPQDIQKAANTYFTRERLSVAHVLPEEKAK | not soluble
SPLPVALQTRLAKRGILKHLEPEPEEEIIAEDYDDDPVDYEATRLEGLPPSWYKVFDPSCGLPYYWNADTDLVSWLSPHDPNSVVTKSAKKLRSSNADAEEKLDRSHDKSDRGHDKSDRSHEKLDRGHDKSDRGHDKSDRDRERGYDKVDRERERDRERDRDRGYDKADREEGKERRHHRREELAPYPKSKKAVSRKDEELDPMDPSSYSDAPRGTWSTGLPKRNEAKTGADTTAAGPLFQQRPYPSPGAVLRANAEASRTKQQD | soluble
MKKIKALALFSGGLDSLLSMKLLIDQGIEVTALHFNIGFGGNKDKREYFENATAQIGAKLLVCDIREQFFNDVLFKPKYGYGKYFNPCIDCHANMFRNAFYKMLELNADFVLSGEVLGQRPKSQRKEALNQVRKLVREVGEEARFDPVLDRTQAGGKKPQFLDELLLRPMSAKLLEPTFMEKKGFVDREKLLDVSGRGRSRQLQMIKDYGLKYYEKPGGGCLLTDIQVSNKIKNLKEYREMVFEDSVIVKNGRYFVLPHNARLVVARNEEENHKLDIQHPLMDKIELLNCKGPLSLVDKNASKEDKELAGRIALGYAKTLKNQAYLIQIGDEKRELYPLDKENAREYLFALEHHHHHH | soluble
NLNMAVSVTPIRDTKWLTLEVCREFQRGTCSRPDTECKFAHPSKSCQVENGRVIACFDSLKGRCSRENCKYLHPPPHLKTQLEINGRNNLIQQKNMAMLAQQMQLANAMMPGAPLQPVPMFSVAPSLATNASAAAFNPYLGPVSPSLVPAEILPTAPMLVTGNPGVPVPAAAAAAAQKLMRTDRLEVCREYQRGNCNRGENDCRFAHPADSTMIDTNDNTVTVCMDYIKGRCSREKCKYFHPPAHLQAKIKAAQYQVNQAAAAQAAATAAAMGIPQAVLPPLPKRPALEKTNGATAVFNTGIFQYQQALANMQLQQHTAFLPPVPMVHGATPATVSAATTSATSVPFAATATANQIPIISAEHLTSHKYVTQM | soluble
MIHKRTNEGDLVIESFADKRCKDLLEGNPPKGFPTTLVRIVQRKLFMLDKAVDLKDLRSPPGNRLEALKGERKGQYSIRINDQFRICFEWRSNGAYEVEIVDYH | not soluble
VRNSPDLLDEIRAGITVHARPDLQTPIDGLLLSKVTAESAAPEYSLTEPLLVIMTQGGKRLLLGDRLYEYRAGQCLVVTASVPVTGHYIDISEGAPSLAMGLVLRPAAIAALVLQAPTERWSRGAAGVPAIETGDADVHLLDAAARMLRLLDHPADAPVLAPLIEQEILWRLLTGPHGSTIRQIGMADSDLAHVSRAIHWIRDNYSEPMRIDDLARLSSMSASAFHRHFRAVTAMSPLQYQKRIRLQHARSMLVAHPGDVAGVGHHVGYDSPSQFNREYRRLFGASPGKDAHGLRGNTALSDTGPLP | not soluble
AHHHHHHGSYLEEKDGIKFYSLNKLEKEGFDVHSLPYSLRILAENILRHLNNGVVSYEHIENIFERKGDIPFYPARIIMQDYTGVPAIVDLAAMRDYIKEKGKDPSRVNPKIPVELVVDHSLIVLYHGTKYSLYENMKEELKANRERYSLLKWASKAFENLKIIPPGKGIIHQINVEHLARIVFLEEGIAYPDTVLGTDSHTPMVNGIGVLGWGVGGIEAEAALLGLPYFMKVPEVVGVVLEGEPSPEITPTDIVLTITEKLRKVGVVGKFLEYTGNVEALSAFDRTVIANMTPENGATVGYFPIDEETIKFIRLTRGESKAKLVEKYAKLNMLYREETPEFDKTVKIDLSKVEPSVAGPFHPEDRIRLKDLKNSFKVEKKTKIRINGGEVEIEDGIIGLAAIASCTNTSNPYNILAAALVAKKAVELGLRTKPWVKTTFTPGSRVVVKYLEKLGLLSYLEALGFHVNGYACASCIGNSGPLKREVEEVIDKGIKVAAVISGNRNFRRRVNSKIDYTYLASPPLVVVFAIAGKITIDPSEPLAYDPNGKPVYLTDILPTKEEVKKLEEVIGEELYKEAYSSLFEDSIWKDIETEESPLFKWDEKSTYVRKPPFFDLTPITDDIKGARALIVLGDRISTDDISPAGKIDPESPAGRYLLSLGVKPEELHTYGARRGNHEVMMRGTFARFKMIYWPTGEEMSVYEAAMRYKERGIPLIIIAGKQYGVGSSRDWAAKGPALLGVKAVIAESFERIHRSNLVGMGIVPLQFKDPEVRKRLTGEEVYDIIGLKDLYPGKTIKVIARKPNGEVIEFETIARVETPIEVEYIRHGGILKYALELLG | not soluble
MGSDKIHHHHHHMSLAIVYSRASMGVQAPLVTIEVHLSNGKPGFTLVGLPEKTVKEAQDRVRSALMNAQFKYPAKRITVNLAPADLPKEGGRFDLPIAIGILAASDQLDASHLKQFEFVAELALTGQLRGVHGVIPAILAAQKSKRELIIAKQNANEASLVSDQNTYFAQTLLDVVQFLNGQEKLPLATEIVKESAVNFSGKNTLDLTDIIGQQHAKRALTIAAAGQHNLLFLGPPGTGKTMLASRLTGLLPEMTDLEAIETASVTSLVQNELNFHNWKQRPFRAPHHSASMPALVGGGTIPKPGEISLATNGVLFLDELPEFERKVLDALRQPLESGEIIISRANAKIQFPARFQLVAAMNPSPTGHYTGTHNRTSPQQIMRYLNRLSGPFLDRFDLSIEVPLLPQGSLQNTGDRGETSAQVREKVLKVREIQMERAGKINAYLNSKEIERDCKLNDKDAFFLEKALNKLGLSVRAYHRILKVSRTIADLQGEQQIFQPHLAEALGYRAMVRLLQKLSNM | not soluble
MPIGNLGHNPNVNNSIPPAPPLPSQTDGAGGRGQLINSTGPLGSRALFTPVRNSMADSGDNRASDVPGLPVNPMRLAASEITLNDGFEVLHDHGPLDTLNRQIGSSVFRVETQEDGKHIAVGQRNGVETSVVLSDQEYARLQSIDPEGKDKFVFTGGRGGAGHAMVTVASDITEARQRILELLEPKGTGESKGAGESKGVGELRESNSGAENTTETQTSTSTSSLRSDPKLWLALGTVATGLIGLAATGIVQALALTPEPDSPTTTDPDAAASATETATRDQLTKEAFQNPDNQKVNIDELGNAIPSGVLKDDVVANIEEQAKAAGEEAKQQAIENNAQAQKKYDEQQAKRQEELKVSSGAGYGLSGALILGGGIGVAVTAALHRKNQPVEQTTTTTTTTTTTSARTVENKPANNTPAQGNVDTPGSEDTMESRRSSMASTSSTFFDTSSIGTVQNPYADVKTSLHDSQVPTSNSNTSVQNMGNTDSVVYSTIQHPPRDTTDNGARLLGNPSAGIQSTYARLALSGGLRHDMGGLTGGSNSAVNTSNNPPAPGSHRFV | not soluble
SMEEKLENEPDFQYIPEKAPLDSVHQDDHSLRESMIQLAEGLITGTVLTQFDQLYRKKPGMTMSCAKLPQNISKNRYRDISPYDATRVILKGNEDYINANYINMEIPSSSIINQYIACQGPLPHTCTDFWQMTWEQGSSMVVMLTTQVERGRVKCHQYWPEPTGSSSYGCYQVTCHSEEGNTAYIFRKMTLFNQEKNESRPLTQIQYIAWPDHGVPDDSSDFLDFVCHVRNKRAGKEEPVVVHCSAGIGRTGVLITMETAMCLIECNQPVYPLDIVRTMRDQRAMMIQTPSQYRFVCEAILKVYEEGFVKPLTTSTNKLT | soluble
MSLDTQSDYVVVGTGSAGAVVASRLSTDPATTVVALEAGPRDKNRFIGVPAAFSKLFRSEIDWDYLTEPQPELDGREIYWPRGKVLGGSSSMNAMMWVRGFASDYDEWAARAGPRWSYADVLGYFRRIENVTAAWHFVSGDDSGVTGPLHISRQRSPRSVTAAWLAAARECGFAAARPNSPRPEGFCETVVTQRRGARFSTADAYLKPAMRRKNLRVLTGATATRVVIDGDRAVGVEYQSDGQTRIVYARREVVLCAGAVNSPQLLMLSGIGDRDHLAEHDIDTVYHAPEVGCNLLDHLVTVLGFDVEKDSLFAAEKPGQLISYLLRRRGMLTSNVGEAYGFVRSRPELKLPDLELIFAPAPFYDEALVPPAGHGVVFGPILVAPQSRGQITLRSADPHAKPVIEPRYLSDLGGVDRAAMMAGLRICARIAQARPLRDLLGSIARPRNSTELDEATLELALATCSHTLYHPMGTCRMGSDEASVVDPQLRVRGVDGLRVADASVMPSTVRGHTHAPSVLIGEKAADLIRSEGHHHHHH | soluble
MKKFSSLFRSFMHFQLTLVKPLTRRSRPIELGRLNCTEPVSSNFGFERGRPIDRYYINIFLSQNTNDVRGRVLEISDNGYTKRLGGKKVKQSDVLHAVEGNPKATIVSDITKADNIPSDSFDCIILTQTLQFIYDTKSAVRHLHRILKPNGVLLATMSGISQISRYDMDHWGEYWRFTTASAKQLFEEEFLPENIEVKAYGNVLSSTAFLYGLAVEDLKTEQLDYHDPNYQMLVTVRAVKADKQLEHHHHHH | not soluble
MFALVLFVCYLDGGCEDIVVDIYDTEQHCLYSMDDQRIRHGGCFPVEDFIDGFWRPAQQYSDFLEHHHHHH | not soluble
GTIVITGTITDQTCTIEDPSPGYIKVVHLPTISKSALKNAGDVAGRTRFDIKLKDCPTTVNTLKLYFEPGPTTDYGTKDLKAYKQAWYVDAATLLKSPPSVTEAKGVQIRLMNLNGKQIPMGETEPNQHAAAFSGTMQAGQAKKSFTLHYLAGYVKKASGEVEATMLTTYVGFSVVYP | not soluble
MGSDKIHHHHHHMNLSHLKMMITVANLGSLQKTAEQLNRTQSAVSMALKKLEENAGFALFNRDGYRLELTEQGQHFLRQAEEVVRQQQRLQSLATQLKHGAEPLLTLCYDHTCDSKLWVPSIQHIQQQYPTTELHVDGESQMRALKRIDNGSADLALCPWLPLFRQYGDFETLPVAPFELTVVISTALMKEFGRMPQSRQDLLELPMLVPQNLEIGINLDAVLRLPSQQRIRVNEVNTQFELLMAGFGWGIIPKHIALDALEQGKLVEISIPGFVQQVRLEIHLVRSANRTLGPAANAIWESFA | not soluble
